# Measurements as given in patent US10889629B2, “Transfected T-cells and T-cell receptors for use in immunotherapy against cancers” (IMMATICS BIOTECHNOLOGIES GMBH, priority 2016, dated 2021).
# Entries after “also recorded” stand apart in the source; their conditions may differ.
# Legend:
# [1] = tested on: HLA-A*0201-positive PBMCs and HLA-A*0201/Kb transgenic mice; settings: in vitro from PBMCs and in HLA-A*0201/Kb transgenic mice; cited from earlier work
# [2] = target: HLA-A*0201 molecule (Homo sapiens, UniProt P04439, D140Y/D185E/D98H/E176V/E277Q/G131W/G231S/I119V/I121R/I166T/I218V/L300P/L318F/N151K/N90K/P208A/P217A/Q86G/Q94H/R138H/R169H/T345S); settings: cited from earlier work
# [3] = tested on: SK-BR-3 (human breast cancer cell line, HLA-A2-negative and MAG-003-negative); assay: IFNγ release, TCR-expressing CD8+ T-cells co-incubated with SK-BR-3; assay type: cell-based; settings: Example 4, SK-BR-3, compared with effector cell only control
# Procedure: (§1) To determine efficacy of T-cells expressing TCRs described herein, primary CD8+ T-cells electroporated with RNA of the TCRs R7P1 D5, R20P1H7 and R10P2G12 were co-incubated with different human cancer cell lines, e.g., A-375 (human melanoma cell line, which is positive for HLA-A2 and MAG-003 expression), T98G (human glioblastoma cell line, which is HLA-A2-positive and MAG-003-negative), and SK-BR-3 (human breast cancer cell line, which is HLA-A2-negative and MAG-003-negative), followed by IFNγ release assay.
# [4] = tested on: HLA-A*02 positive cell types from healthy tissues; assay: Safety: IFN-γ release upon co-culture with primary and iPSC-derived cell types from healthy tissues; assay type: cell-based, human; settings: E:T ratio 1:1, 20 h, ELISA, normalized
# Description: FIG. 13 T cells transfected with RNA coding for TCR R7P1 D5, R10P2G12, R20P1H7, mock or the control TCR 1G4 (SEQ ID NO:X) were co-cultured with different primary human healthy tissue cells (see table 13 for abbreviations), the target negative tumor cell line MCF-7 and the MAGEA4- and NY-ESO1-positive cell lines A-375 and NCI-H1755. TCRs R7P1D5, R10P2G12, R20P1H7 and 1G4 expression in T cells was achieved by electroporation using an RNA vector. […] E:T ratio 1:1, 20,000 cells each, mean of IFN-γ release after 20 h from replicates is shown as measured by ELISA. Error bars indicate standard deviations. Results were normalized by subtraction of IFN-γ release from TCR-transfected T cells only and IFN-γ release due to co-culture of Target cells and T cells not expressing TCR of interest.
# (§2) TCRs of interest were expressed in human T cells via RNA electroporation and the T cells were assessed for IFN-γ release after co-culture with different target cells, such as T2 cells loaded with different peptides as well as tumor cell lines and primary cells from healthy tissues. T-cell activation data are shown in absolute IFN-γ levels or a normalized way as indicated below.
# (§3) Efficacy of CD8+ T cells expressing TCRs R7P1 D5, R10P2G12 and R20P1H7 was determined by T cell activation studies (IFN-γ release) using different tumor cell lines as target cells. The characterization of the safety profile of TCRs of interest was approached by testing the potential activation of TCR-expressing T cells upon co-culture with isolated primary cell types from healthy tissues and induced pluripotent stem cell (iPSC)-derived cell types from HLA-A*02-positive donors (Table 13). Cell types were selected in a manner to cover most of the critical organs like e.g. brain, heart and liver and different cell types as epithelium, endothelium or smooth muscle. Tumor cell lines were analyzed side-by-side as positive and negative controls.
# (§4) Normalization Method for IFNγ Release: Meannorm(TCRoi;co)=[mean(TCRoi;co)−mean(TCRoi;effector only)]−[mean(mock;co)−mean(mock;effector only)]
# The respective CVnorm was calculated: CVnorm(TCRoi;co)=[CV(TCRoi;co)^2+CV(TCRoi;effector only)^2+CV(mock;co)^2+CV(mock;effector only)^2]^[½] TCRoi=effector cells expressing TCR of interest Mock=effector cells without exogenous TCR expression Co=effector cells co-cultured with target cells Effector only=effector cells not co-cultured Mean(norm)=mean IFNγ release (normalized) CV(norm)=coefficient of variation (normalized) Results: […]
# [5] = tested on: human non-small cell cancer cell line, H1755 (NCI-H1755); assay: IFNγ release, TCR-expressing CD8+ T-cells co-incubated with H1755; assay type: cell-based; settings: Example 6, NCI-H1755 expressing HLA-A*02 and MAGEA4
# Procedure: as §1, §2, §3, §4
# [6] = tested on: MHC/NYESO1-001 tetramer; assay: Tetramer staining of TCR-RNA-electroporated CD8+ T-cells, MHC/NYESO1-001 control tetramer; assay type: binding, human
# Description: (§5) FIG. 8 show MHC/MAG-003 tetramer or MHC/NYESO1-001 tetramer staining of CD8+ T-cells electroporated with alpha and beta chain RNA of TCRs R7P1 D5, R20P1H7 and R10P2G12 (Table 2), respectively. CD8+ T-cells electroporated with RNA of 1G4 TCR that specifically binds to MHC/NYESO1-001 complex and mock electroporated CD8+ T-cells served as controls.
# (§6) T-cell activation was further confirmed using a tetramer staining technique to detect MHC/MAG-003-binding activated cytotoxic T-cells. As shown in FIG. 8 and Table 11, a higher percentage of TCR-expressing CD8+ T-cells were stained positive fluorescent-labeled MHC/MAG-003 tetramer than that with MHC/NYESO1-001 control tetramer or mock control. […] The alpha and beta chains of TCR 1G4 are shown in SEQ ID NO:89 and 90, respectively: […]
# [7] = target: T1, MHC/MAG-003 complex (Homo sapiens, UniProt P04439+P43358, D140Y/D185E/D98H/E176V/E277Q/G131W/G231S/I119V/I121R/I166T/I218V/L300P/L318F/N151K/N90K/P208A/P217A/Q86G/Q94H/R138H/R169H/T345S); assay: IFN-γ release assay: TCR-RNA-electroporated CD8+ T-cells co-incubated with peptide-loaded target cells; assay type: cell-based
# T1 construct: endogenous in cells
# Procedure: In another aspect, to obtain T-cells expressing TCRs of the present description, TCR RNAs were synthesized by techniques described in the art, e.g., in vitro transcription systems. The in vitro-synthesized TCR RNAs were then introduced into primary CD8+ T-cells obtained from healthy donors by electroporation to re-express tumor specific TCR-alpha and/or TCR-beta chains.
# To determine specificity and affinity of TCRs, the transformed CD8+ T-cells were co-incubated with MAG-003-loaded target cells or with target cells loaded with homologous but unrelated peptide RABGAP1L-001 (SEQ ID NO:91), AXIN1-001 (SEQ ID NO:92), ANO5-001 (SEQ ID NO:93), TPX2-001 (SEQ ID NO:94), SYNE3-001 (SEQ ID NO:95), MIA3-001 (SEQ ID NO:96), HERC4-001 (SEQ ID NO:97), PSME2-001 (SEQ ID NO:98), HEATR5A-001 (SEQ ID NO:99) or CNOT1-003 (SEQ ID NO:100) or control peptide NYESO1-001 (SEQ ID NO:101), followed by IFN-γ release assay. Unloaded target cells and CD8+ T-cells alone served as controls. IFN-γ secretion from CD8+ T-cells is indicative of T-cell activation with cytotoxic activity.
# As shown in FIGS. 5-7 all primary CD8+ T-cells transformed with TCRs of the present disclosure, after co-incubation with MAG-003-loaded target cells, released much higher levels of IFN-γ than that stimulated by unrelated peptide-loaded target cells, and the controls.
# [8] = tested on: T98G (human glioblastoma cell line, HLA-A2-positive and MAG-003-negative); assay: IFNγ release, TCR-expressing CD8+ T-cells co-incubated with T98G; assay type: cell-based; settings: Example 4, T98G, compared with effector cell only control
# Procedure: as §1
# [9] = target: MHC/MAG-003 tetramer (Homo sapiens, UniProt P04439+P43358, D140Y/D185E/D98H/E176V/E277Q/G131W/G231S/I119V/I121R/I166T/I218V/N151K/N90K/P208A/P217A/Q86G/Q94H/R138H/R169H); assay: Tetramer staining of TCR-RNA-electroporated CD8+ T-cells, MHC/MAG-003 tetramer; assay type: binding
# Description: as §5, §6
# [10] = tested on: A-375 (human melanoma cell line, positive for HLA-A2 and MAG-003 expression); assay: IFNγ release, TCR-expressing CD8+ T-cells co-incubated with A-375; assay type: cell-based
# Procedure: as §1, §2, §3, §4
# [11] = tested on: MHC/NYESO1-001 complex; assay: Activation of 1G4-transformed CD8+ T-cells by NYESO1-001-loaded target cells; assay type: cell-based, human
# [12] = tested on: NYESO1 expressing HLA-A*02 positive tumor cell lines; assay: IFN-γ release of 1G4-expressing CD8+ T cells with NYESO1 expressing tumor cell lines; assay type: cell-based, human; settings: Example 6
# Procedure: as §2, §3
molecule,measurement,setting,value
KVLEHVVRV (listed as Homo sapiens) [MAG-003],induction of peptide-specific CTLs,[1],elicits peptide-specific CTLs
same,binding affinity and stability towards HLA-A*0201 molecule,[2],potent binding affinity and stability
YLLEHVVRL (listed as Homo sapiens) [p286-1Y2L9L],induction of peptide-specific CTLs,[1],showed the capability to induce specific CTLs
same,binding affinity and stability towards HLA-A*0201 molecule,[2],potent binding affinity and stability
"R20P1H7: TCR, alpha chain SEQ ID NO:39 and beta chain SEQ ID NO:47, MAG-003-specific (protein, listed as Homo sapiens) alpha: MEKMLECAFIVLWLQLGWLSGEDQVTQSPEALRLQEGESSSLNCSYTVSGLRGLFWYRQDPGKGPEFLFTLYSAGEEKEKERLKATLTKKESFLHITAPKPEDSATYLCAVQGENSGYSTLTFGKGTMLLVSPDIQNPDPAVYQLRDSKSSDKSVCLFTDFDSQTNVSQSKDSDVYITDKTVLDMRSMDFKSNSAVAWSNKSDFACANAFNNSIIPEDTFFPSPESSCDVKLVEKSFETDTNLNFQNLSVIGFRILLLKVAGFNLLMTLRLWSS beta: MGPQLLGYVVLCLLGAGPLEAQVTQNPRYLITVTGKKLTVTCSQNMNHEYMSWYRQDPGLGLRQIYYSMNVEVTDKGDVPEGYKVSRKEKRNFPLILESPSPNQTSLYFCASSLGPGLAAYNEQFFGPGTRLTVLEDLKNVFPPEVAVFEPSEAEISHTQKATLVCLATGFYPDHVELSWWVNGKEVHSGVSTDPQPLKEQPALNDSRYCLSSRLRVSATFWQNPRNHFRCQVQFYGLSENDEWTQDRAKPVTQIVSAEAWGRADCGFTSESYQQGVLSATILYEILLGKATLYAVLVSALVLMAMVKRKDSRG",IFNγ release,[3],basal levels of IFNγ release
same,T-cell activation (IFN-γ release) by healthy tissue cells,[4],no activation was observed; also recorded: did not lead to significant TCR-mediated recognition and T-cell activation
same,T-cell activation (IFN-γ release),[5],activity
same,% NYESO1-001 TET-positive primary CD8+ T-cells,[6],0.87%
same,IFNγ,"[7]; CD8+ T-cells electroporated with TCR RNA, co-incubation with MAG-003-loaded target cells",200 to 900 pg/mL
same,EC50,"[7]; target peptide (MAG-003) titration, IFN-γ release",~10 nM
same,IFNγ release,[8],basal levels of IFNγ release
same,% MAG-003 TET-positive primary CD8+ T-cells,[9],5.73%
same,IFNγ release,"[10]; Example 4, A-375, HLA-A2-positive and MAG-003-positive",IFNγ release was observed
same,T-cell activation (IFN-γ release),"[10]; Example 6, A-375 expressing HLA-A*02 and MAGEA4",activity
"1G4: control TCR known to bind specifically to MHC/NYESO1-001 complex; alpha and beta chains SEQ ID NO:89 and 90 (protein, listed as Homo sapiens) alpha: METLLGLLILWLQLQWVSSKQEVTQIPAALSVPEGENLVLNCSFTDSAIYNLQWFRQDPGKGLTSLLLIQSSQREQTSGRLNASLDKSSGRSTLYIAASQPGDSATYLCAVRPTSGGSYIPTFGRGTSLIVHPYIQNPDPAVYQLRDSKSSDKSVCLFTDFDSQTNVSQSKDSDVYITDKTVLDMRSMDFKSNSAVAWSNKSDFACANAFNNSIIPEDTFFPSPESSCDVKLVEKSFETDTNLNFQNLSVIGFRILLLKVAGFNLLMTLRLWSS beta: MSIGLLCCAALSLLWAGPVNAGVTQTPKFQVLKTGQSMTLQCAQDMNHEYMSWYRQDPGMGLRLIHYSVGAGITDQGEVPNGYNVSRSTTEDFPLRLLSAAPSQTSVYFCASSYVGNTGELFFGEGSRLTVLEDLKNVFPPEVAVFEPSEAEISHTQKATLVCLATGFYPDHVELSWWVNGKEVHSGVSTDPQPLKEQPALNDSRYCLSSRLRVSATFWQNPRNHFRCQVQFYGLSENDEWTQDRAKPVTQIVSAEAWGRADCGFTSESYQQGVLSATILYEILLGKATLYAVLVSALVLMAMVKRKDSRG",T-cell activation (IFN-γ release) by healthy tissue cells,[4],not towards the indicated panel of healthy tissue cells
same,T-cell activation,[11],readily activated
same,T-cell reactivity (IFN-γ release),[12],reactive
